Test: yeast display, Sf9 membrane polyspecificity reagent, FACS + sequencing; frameworks hold sequencing errors
Outline: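 After 36–48 hours of galactose induction, yeast (Saccharomyces cerevisiae BJ5465) displaying a synthetic nanobody library were stained at 4 °C for 1 hour with 10% biotinylated, detergent-solubilized Sf9 membrane reagent. Streptavidin microbeads enriched the stained cells before FACS sorting into low and high (top ~1%) gates on anti-HA and streptavidin fluorescence. Each clone's polyreactivity label reflects its gate of origin.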

Row | Sequence | polyreactivity (PSR sort gate)
1 | QVQLQESGGGLVQACSSLRLSCAASGTIFYYIMGWYRQAPGKERELVATIDLGGGTNYADSVKGRFTISRDDAKNTVYLQMSSLKPEDTAEYYCAVYLYRLTFFYYWGQGNQVTVSS | high polyreactivity
2 | QVQLVESGGGLVQAGGSLRLSCAASGIIFPTYAMGWYRQAPGKERELVAAISVSGGTTSYADSVKGRFTISRDNAKNTVYLQMNSLKPEDTAVYYCAKRPFSTRYDYWGQGTQVTVSS | high polyreactivity
3 | QVQLVESGGGLVQAGGSLRLSCADSGSTFRRYAMGWYRQAPGKERELVAAISWSGGSTYYADSVKGRFTISRDNAKNTVYLQMKSLKPEDTAVYYCAARGVTSYWQDYDYWGQGTQVTVSS | low polyreactivity
4 | QVQLVESGGGLVQAGGSLRLSCAASGRTFYYYAMGWYRQAPGKERELVAAISWTGGNTYYADSVKGRFTISRDNAKNTVYLQMNSLKPEDTAVYYCAKQTRGYVRGPMYYWGQGTQVTVSS | high polyreactivity
5 | QVQLVESGGGLVQAGGSLRLSCAASGFTFGRNAMGWYRQAPGKERELVAAISRGGSTYYADSVKGRFTISRDNAKNTVYLQMISLKPEDTAVYYCAAETFLKPQYFKKFGYWGQGTQVTVSS | high polyreactivity
6 | QVQLVESGGGLVQAGGSLRLSCAASGRTFGFYAMGWYRQAPGKERELVAAIRGSIGNTYYADSVKGRFTISRDNAKNTVYLQMNSLKPEDTAVYYCAKAIRYPSAKFYWGQGTQVTVSS | high polyreactivity
7 | QVQLVESGGGLVQAGVSLRLSCAASGFTFSRYGMGWYRQTPGKERELVAAITWSGGNTNYADSVKGRFTISRDNAKNTVYLQMNSLKPEDTAVYYCNAPRGYWSQSHFDYWGQGTQVNVSS | high polyreactivity
8 | QVQLVDSGGGLVQAGGSLRLSCAASGNTFGINDMGWYRKAPGKERELVAAIRISGGSTYYADSVKGRFTISRDNAKNTVYLQMNSLKPEDTAVYYCAKYGPRASLYRTGRYYWGQGTQVTVSS | high polyreactivity
9 | QVQLVESGGGLVQAGGSLRLSCAASGRIFTYYAMGWYRQAPGKEREFVAAISRSGGSTYYADSVKGRFTISRDNAKNTVYFQMNSLKPEDTAVYSCAADPPYRGRRGFDHNYWGQGTQVTVSS | high polyreactivity
10 | QVQLVESGGGLVQAGGSLRLSCAASGSIFRWNAMGWSRQAPGKERELVAAITWDGGRTYYADSVKGRFTISRDNAKNTVYLQMNSLKPEDTAVYYCNADNARGRSGVRRYYWGQGTQVTVSS | high polyreactivity
11 | QVQLQGSGGGLVQAGGSLRQSCAASGYIFQNVPMGWNRQAPGKERELVAGIDNGTSTNYADSVNGRFTISRDNAKNTVYLQMNSLKPEDTAVYYCAAAGQADDTLGYWGQGTQVTVSS | low polyreactivity
12 | QVQLVESGGGLVQAGGSLRLSCAASGRTFRWYAMGWYRQAPGKERELVAAISGSGDRTYYADSVKGRFTISRDNAKNTVYLQMNSLKPEDTAVYYCNKAYLLYYTYARGDYWGQGTQVTVSS | high polyreactivity
13 | QGQLVESGGGLVQARGSLRLSCAASGRIFMTYAMAWYIQAPGKERELVAAIRSPSGTTYYADSVKGRFTISRDNAKNTVYLQMNSLKPEDTAVYYCAAGGKYSSYYWGQGTQVTVSS | high polyreactivity
14 | QVQLVESGGGLVQAGGSLRLSCASSGRIFWTYAMGWYRQAPGKERELVAAITSGGSTYYADSVKGRFTISRDKAKNTVYLQMNSLKPEDTAVLYCAATSYYYNFLEHDYWGQGTQVTVSS | high polyreactivity
15 | QVQLVESGGGLVQAGGSLRLSCAASGSIFYYFALGWYRQAPGTERELVAAISRSGGRTYYADSVKGRFTISRDNAKNPVYLHMNSLKPEDTAFYYCNTDGYYTTAKYGYWGQGTQVTVSS | high polyreactivity
16 | QVQLVESGGGLVQAGGSLRLSCAASGSIFSFYAMGWYRQAPGKERELVAAISWSGGSTYYADSVKGRFTISRDNAKNTVYLQMNSLKPEDTAVYYCAADYYYGTYDYWGQGTQVTVST | low polyreactivity

Row | Sequence | polyreactivity (PSR sort gate)
17 | QVQLVESGGGLVQAGGSLRLSCAASGSTFNSYTMGWYRPAPGKERELVAAISWRGTSTYYADSVKGRFTISRDNAKNTVYLQMNSLKPEDTAVFYCAAAGRYRVLTGLVSSWKYWGQGTLVTVSS | high polyreactivity
18 | QVQLVESGGGLVQAGGSLRLSCAASGFTFGWNAMGWYRQAPGKERELVAAISWSGGSTYYADSVKGRFTISRDNAKKTVYLQMNSLKPEDTAVYYCAAYPAYGGDYWGQGTQVTVSS | high polyreactivity
19 | QVQLVESGGGLVQAGGSLRLSCAASGSTFYGYAMGWSRQAPGKERELVAAISSSGSRTYYADSVKGRFTISRDNANNPVYLQMNSLKPEDTAVYYCAAVSTLLYYHYYTRDYWGQGTEVTVSS | high polyreactivity
20 | QVQLVESGGGLVQAGGSLRLSCAASGSIFSYNGKGWYRQAPGKERELVATISASSVTTYYADSVKGRFTISRDNAKNTVYLQMNSLKPEDTAVYYCARDAYSVYYYVFLHWEYDYWGQGTQVTVSS | high polyreactivity
21 | QVQLVESGGGLVQAGGSLRLSCAASGIIFYWNAMGWYRHAPGKERELVAGITRGGSTYYADSVKGRFTISRDNAKNTVYLQMNSLKPEDTAVYYCAKRHASRRVSYSRYDYWGQGTQVTVSS | high polyreactivity
22 | QVQLVESGGGLVQAGGSLRLSCAAYGFIFGGNAMGWYRQAPGKERELVAAITARSGSTYYADSVKGRFTISRDNAKNTVYLQMNSLKPEDTAVYYCATPVYRSTYEYDYWGQGTQVTVSS | low polyreactivity
23 | QVLLQERGGGLVQAGGSLRLSCAASGTISTDIRMGWYRLAPGKEREFVASIDGCSTTYYAYSVKGRFTISRDNAKNTVYLQMNSLKPEDTAMYYCAAREATEFYLYYWGQGTQVTVSS | low polyreactivity
24 | QVQLVESGGGLVQAGGSLRLTCAASGFTFARYAMGWYRQAPGKERELVAAISSNDNTSYADSVKGRFTISRDNAKNTVYLQMNSLKPEDTAVYDCAKKRYHWYGRYYYWGQGTQLTVSS | high polyreactivity
25 | QVQLVESGGGLVQAGGSLRLSCAASGRTFTTYAMGWSRQAPGKERELVAAISSGGSTHYADSVKGRFTISRDNAKYTVYLQMNSLKPEDTAVYYCAADKYYYRTSGQEMDYWGQGTQVTVSS | high polyreactivity
26 | QVQLVESGGGLVQAGGSLRLSCAASGSIFYENVMGWYRQAPGKERELVAGISRSGGRTYYADSVKGRFTISRDNAKNTVYLQMNSLIPEDTAVYYCNAARVYLSEWGQGTQVTVSS | high polyreactivity
27 | QVQLVESGGGLVQAGGSLLLSCAASVRIFQGYAMGWYRQEPGKERELVAAISSGGRTYYADSVKGRFTISRDNAKNTVYLQMNSLKPEDTAVYYCAARSPKAHGLQRFDYWGQGTQVTVSS | high polyreactivity
28 | QVQLVESGGGLVQAGGSLRLSCAASGSTFRTYAMGWYRQAPGKERELVADITWRGGSTYYADSVKGRFTISRDNAKNTVYLQMNSLKPEDTAGYYCATDRGPEVVLYDYWGQGTQVTVSS | low polyreactivity
29 | QVQLVDTGGGFVQAGGSLRLSCAASGRTFPYYAMGLYRQAPGKERELVAAMTRGVRTQYADSVKGRFTISRDNAKNTVYLQMNSLKPEDTAVYYCAREDWGSYSDMDSWGQGTQVTVSS | low polyreactivity
30 | QVQLVESGGGLVQAGGSLRLSCAASGSTFVWYGMGWYRQAPGKEREFVAAISTSGGRTYYADSVKGRFTISRDNAKNTVYLQMNSLKPEDTAVYYCATRPYFTYRWYDYWGQGTQVTVSS | high polyreactivity
31 | QVQLVESGGGLVQAGGSLRLSCAASGSIFFSNAMGWYRQAPGKERELVAAITSTGGSTYYADSVKGRFTISRDNAKNTVDLQMNSLKPEDTAVYYCAAASRRGYYYWGQGTQVTVSS | high polyreactivity
32 | QVQLVESGGGLVQAGGSLRLSCAASGRTFSSYAMGWYRQAPGKERELVARISSSGGRTSYADSVKGRFTISRDNAKNTVYLQMKSLKPEDTAVYYCAKTYHWLYDYWGQGTQVTVSS | high polyreactivity
